In paper PMC3443293 (Nature structural & molecular biology, 2012):

B1: human nectin-1 ectodomain (D1-D3) (domain or fragment)
chain: QVVQVNDSMYGFIGTDVVLHCSFANPLPSVKITQVTWQKSTNGSKQNVAIYNPSMGVSVLAPYRERVEFLRPSFTDGTIRLSRLELEDEGVYICEFATFPTGNRESQLNLTVMAKPTNWIEGTQAVLRAKKGQDDKVLVATCTSANGKPPSVVSWETRLKGEAEYQEIRNPNGTVTVISRYRLVPSREAHQQSLACIVNYHMDRFKESLTLNVQYEPEVTIEGFDGNWYLQRMDVKLTCKADANPPATEYHWTTLNGSLPKGVEAQNRTLFFKGPINYSLAGTYICEATNPIGTRSGQVEVNITEFP
modifications: natively glycosylated (N-linked glycans)

What was measured:
AUC = target: the molecule itself; assay: AUC
[1] = target: B1; assay: AUC
[2] = target: human nectin-3 ectodomain (D1-D3) (human, UniProt Q9NQS3 58-359, natively glycosylated (N-linked glycans)); assay: SPR
crystal structure = target: the molecule itself; assay: crystal structure

Row | Binder | Kd (AUC) | stoichiometry N (AUC) | binding result [1] | binding result [2] | binding result (crystal structure)
1 | mouse nectin-2 D1-2 fragment (domain or fragment, natively glycosylated (N-linked glycans)) QDVRVRVLPEVRGRLGGTVELPCHLLPPTTERVSQVTWQRLDGTVVAAFHPSFGVDFPNSQFSKDRLSFVRARPETNADLRDATLAFRGLRVEDEGNYTCEFATFPNGTRRGVTWLRVIAQPENHAEAQEVTIGPQSVAVARCVSTGGRPPARITWISSLGGEAKDTQEPGIQAGTVTIISRYSLVPVGRADGVKVTCRVEHESFEEPILLPVTLSVRY | 7.62 µM | 2 | – | – | –
2 | human nectin-4 ectodomain (D1-D3) (domain or fragment, natively glycosylated) GELETSDVVTVVLGQDAKLPCFYRGDSGEQVGQVAWARVDAGEGAQELALLHSKYGLHVSPAYEGRVEQPPPPRNPLDGSVLLRNAVQADEGEYECRVSTFPAGSFQARLRLRVLVPPLPSLNPGPALEEGQGLTLAASCTAEGSPAPSVTWDTEVKGTTSSRSFKHSRSAAVTSEFHLVPSRSMNGQPLTCVVSHPGLLQDQRITHILHVSFLAEASVRGLEDQNLWHIGREGAMLKCLSEGQPPPSYNWTRLDGPLPSGVRVDGDTLGFPPLTTEHSGIYVCHVSNEFSSRDSQVTVDVLDPQ | 153 µM | 2 | binds | – | –
3 | human nectin-2 ectodomain (D1-D3) (domain or fragment, natively glycosylated) QDVRVQVLPEVRGQLGGTVELPCHLLPPVPGLYISLVTWQRPDAPANHQNVAAFHPKMGPSFPSPKPGSERLSFVSAKQSTGQDTEAELQDATLALHGLTVEDEGNYTCEFATFPKGSVRGMTWLRVIAKPKNQAEAQKVTFSQDPTTVALCISKEGRPPARISWLSSLDWEAKETQVSGTLAGTVTVTSRFTLVPSGRADGVTVTCKVEHESFEEPALIPVTLSVRYPPEVSISGYDDNWYLGRTDATLSCDVRSNPEPTGYDWSTTSGTFPTSAVAQGSQLVIHAVDSLFNTTFVCTVTNAVGMGRAEQVIFVRETP | 0.392 µM | 2 | – | binds | –
4 | mouse nectin-2 ectodomain (D1-D3) (domain or fragment, natively glycosylated) QDVRVRVLPEVRGRLGGTVELPCHLLPPTTERVSQVTWQRLDGTVVAAFHPSFGVDFPNSQFSKDRLSFVRARPETNADLRDATLAFRGLRVEDEGNYTCEFATFPNGTRRGVTWLRVIAQPENHAEAQEVTIGPQSVAVARCVSTGGRPPARITWISSLGGEAKDTQEPGIQAGTVTIISRYSLVPVGRADGVKVTCRVEHESFEEPILLPVTLSVRYPPEVSISGYDDNWYLGRSEAILTCDVRSNPEPTDYDWSTTSGVFPASAVAQGSQLLVHSVDRMVNTTFICTATNAVGTGRAEQVILVRESP | 1.09 µM | 2 | – | – | –
5 | human nectin-4 D1-2 fragment (domain or fragment) GELETSDVVTVVLGQDAKLPCFYRGDSGEQVGQVAWARVDAGEGAQELALLHSKYGLHVSPAYEGRVEQPPPPRNPLDGSVLLRNAVQADEGEYECRVSTFPAGSFQARLRLRVLVPPLPSLNPGPALEEGQGLTLAASCTAEGSPAPSVTWDTEVKGTTSSRSFKHSRSAAVTSEFHLVPSRSMNGQPLTCVVSHPGLLQDQRITHILHVS | – | – | – | – | binds
6 | mouse nectin-1 ectodomain (D1-D3) (domain or fragment, natively glycosylated) QVVQVNDSMYGFIGTDVVLHCSFANPLPSVKITQVTWQKASNGSKQNMAIYNPTMGVSVLPPYEKRVEFLRPSFIDGTIRLSGLELEDEGMYICEFATFPTGNRESQLNLTVMAKPTNWIEGTRAVLRARKGQDDKVLVATCTSANGKPPSAVSWETRLKGEAEYQEIRNPNGTVTVISRYRLVPSREAHRQSLACIVNYHLDRFRESLTLNVQYEPEVTIEGFDGNWYLQRTDVKLTCKADANPPATEYHWTTLNGSLPKGVEAQNRTLFFRGPITYSLAGTYICEATNPIGTRSGQVEVNITEFP | 22.6 µM | 2 | – | – | –
7 | mouse nectin-4 ectodomain (D1-D3) (domain or fragment, natively glycosylated) GELETSDVVTVVLGQDAKLPCFYRGDPDEQVGQVAWARVDPNEGIRELALLHSKYGLHVNPAYEDRVEQPPPPRDPLDGSVLLRNAVQADEGEYECRVSTFPAGSFQARMRLRVLVPPLPSLNPGPPLEEGQGLTLAASCTAEGSPAPSVTWDTEVKGTQSSRSFTHPRSAAVTSEFHLVPSRSMNGQPLTCVVSHPGLLQDRRITHTLQVAFLAEASVRGLEDQNLWQVGREGATLKCLSEGQPPPKYNWTRLDGPLPSGVRVKGDTLGFPPLTTEHSGVYVCHVSNELSSRDSQVTVEVLDPEDPG | 278 µM | 2 | – | – | –
8 | human nectin-1 ectodomain (D1-D3) F129D (domain or fragment, natively glycosylated) QVVQVNDSMYGFIGTDVVLHCSFANPLPSVKITQVTWQKSTNGSKQNVAIYNPSMGVSVLAPYRERVEFLRPSFTDGTIRLSRLELEDEGVYICEFATDPTGNRESQLNLTVMAKPTNWIEGTQAVLRAKKGQDDKVLVATCTSANGKPPSVVSWETRLKGEAEYQEIRNPNGTVTVISRYRLVPSREAHQQSLACIVNYHMDRFKESLTLNVQYEPEVTIEGFDGNWYLQRMDVKLTCKADANPPATEYHWTTLNGSLPKGVEAQNRTLFFKGPINYSLAGTYICEATNPIGTRSGQVEVNITEFP | 820 µM | 2 | – | – | –
9 | B1 | 17.5 µM | 2 | – | binds | –
